From patent US6355610B2 (priority 1998, dated 2002)
pIC50: −log10 of the molar value. “Also recorded” adds a separate entry of the source. Ends that are not written are not given here.

Tests used:
[1] = molecular target: hamster PrP conversion reaction (PrPsen to PrPres) (Mesocricetus auratus, UniProt P04273); assay: biochemical; design: species or system Syrian golden hamster
[2] = molecular target: 35S-HaPrPsen (Mesocricetus auratus, UniProt P04273); format: biochemical, hamster

| Substance | inhibition of the conversion reaction (in words) [1] | peptide induced aggregation of 35S-HaPrPsen [2] | pIC50 [1] |
| --- | --- | --- | --- |
| Aβ1-40 | gave no inhibition of conversion; also recorded: unable to inhibit the PrPsen to PrPres conversion at all concentrations tested | caused aggregation and pelleting of 35S-HaPrPsen |  |
| GAVVGGLGGYMLGSAMSR [P119-130] |  |  | > 4.00 |
